In patent US20210317201A1 (Boehringer Ingelheim, published 2021):
“And” between values parts separate entries of the source, which are not always exact repeats. Identical values can stand only once.

What was measured:
[1] = target: T1, recombinant human IL-23 (human, UniProt P29460 23-328); assay: BLI, Fortebio Octet; hybridoma-derived antibody
T1 construct: also called Human recombinant IL-23
T1 sequence 1: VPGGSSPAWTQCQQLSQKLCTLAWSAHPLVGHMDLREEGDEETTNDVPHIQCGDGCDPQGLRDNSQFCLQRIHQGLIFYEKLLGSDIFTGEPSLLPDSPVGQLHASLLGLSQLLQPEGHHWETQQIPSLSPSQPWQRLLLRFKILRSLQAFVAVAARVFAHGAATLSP
T1 sequence 2: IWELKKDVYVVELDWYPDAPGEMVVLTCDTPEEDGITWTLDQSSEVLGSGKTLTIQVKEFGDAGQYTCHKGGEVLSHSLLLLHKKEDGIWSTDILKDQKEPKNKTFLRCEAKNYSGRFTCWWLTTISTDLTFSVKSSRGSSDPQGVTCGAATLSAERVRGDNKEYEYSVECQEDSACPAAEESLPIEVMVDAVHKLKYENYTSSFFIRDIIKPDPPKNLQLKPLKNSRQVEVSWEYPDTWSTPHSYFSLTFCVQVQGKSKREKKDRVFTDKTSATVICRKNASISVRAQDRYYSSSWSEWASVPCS
Procedure: Kinetics and binding affinities were measured using the Fortebio OCTET® (Fortebio, Menlo Park, Calif.) using material generated from hybridoma following single column purification.

[2] = target: T2, natural human IL-23 from activated THP-1 cells (human, UniProt P29460 23-328); assay: cell-based or functional assay
T2 sequence 1: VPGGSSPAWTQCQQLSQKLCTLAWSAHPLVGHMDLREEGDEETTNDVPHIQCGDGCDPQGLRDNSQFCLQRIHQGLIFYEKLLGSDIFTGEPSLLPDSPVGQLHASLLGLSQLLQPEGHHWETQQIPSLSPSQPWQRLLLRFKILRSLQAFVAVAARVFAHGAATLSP
T2 sequence 2: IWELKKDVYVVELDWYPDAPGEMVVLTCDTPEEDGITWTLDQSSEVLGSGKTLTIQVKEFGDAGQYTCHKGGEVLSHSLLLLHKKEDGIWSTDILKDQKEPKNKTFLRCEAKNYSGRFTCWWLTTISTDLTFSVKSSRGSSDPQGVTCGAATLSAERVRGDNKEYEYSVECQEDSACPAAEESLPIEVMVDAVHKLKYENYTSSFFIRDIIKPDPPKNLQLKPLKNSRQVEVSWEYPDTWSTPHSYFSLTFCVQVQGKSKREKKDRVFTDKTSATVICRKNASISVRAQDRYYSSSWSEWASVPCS

[3] = target: T1, recombinant human IL-23; assay: cell-based or functional assay
[4] = target: T3, Human IL-23 no linker (human, UniProt P29460 23-328); assay: SPR, ProteOn XPR36, global 1:1 fit
T3 construct: also called recombinant IL-23 without linker
T3 sequence 1: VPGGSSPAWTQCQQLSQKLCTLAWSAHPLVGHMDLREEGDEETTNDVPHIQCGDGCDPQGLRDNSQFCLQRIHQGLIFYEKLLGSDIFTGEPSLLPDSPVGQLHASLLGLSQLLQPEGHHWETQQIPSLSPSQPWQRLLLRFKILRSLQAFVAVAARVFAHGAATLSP
T3 sequence 2: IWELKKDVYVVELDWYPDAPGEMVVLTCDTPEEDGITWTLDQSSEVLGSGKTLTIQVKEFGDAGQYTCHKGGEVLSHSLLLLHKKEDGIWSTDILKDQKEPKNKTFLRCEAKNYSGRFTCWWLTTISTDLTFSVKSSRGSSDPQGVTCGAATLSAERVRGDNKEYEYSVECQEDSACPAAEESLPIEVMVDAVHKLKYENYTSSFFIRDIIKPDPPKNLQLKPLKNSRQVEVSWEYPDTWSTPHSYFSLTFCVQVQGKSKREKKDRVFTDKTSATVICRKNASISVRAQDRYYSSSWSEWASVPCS
Procedure: B) Affinities were measured for humanized antibodies derived from mouse antibody 6B8.

[5] = target: T4, human IL-12 (human, UniProt P29459 23-219; P29460 23-328); assay: cell-based or functional assay
T4 sequence (looked up) 1: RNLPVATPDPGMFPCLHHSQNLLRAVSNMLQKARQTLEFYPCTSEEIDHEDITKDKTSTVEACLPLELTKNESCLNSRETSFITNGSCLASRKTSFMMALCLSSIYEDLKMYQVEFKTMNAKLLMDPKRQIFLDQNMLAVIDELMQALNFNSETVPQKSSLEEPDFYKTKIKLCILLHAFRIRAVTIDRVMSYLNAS
T4 sequence (looked up) 2: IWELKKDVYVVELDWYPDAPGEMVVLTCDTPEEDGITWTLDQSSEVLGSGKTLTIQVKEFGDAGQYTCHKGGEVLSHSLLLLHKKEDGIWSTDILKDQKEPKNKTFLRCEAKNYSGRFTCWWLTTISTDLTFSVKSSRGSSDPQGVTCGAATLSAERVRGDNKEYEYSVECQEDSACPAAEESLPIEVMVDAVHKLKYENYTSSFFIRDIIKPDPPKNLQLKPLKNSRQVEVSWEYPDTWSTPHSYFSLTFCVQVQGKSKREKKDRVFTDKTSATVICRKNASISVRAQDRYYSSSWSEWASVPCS

Binder	Kd [1] [nM]	koff [1] [s⁻¹]	IC50, IL-23 stimulated IL-17 production from mouse splenocytes [2]	IC50, IL-23 stimulated IL-17 production from mouse splenocytes [3] [nM]	Kd [4] [nM]	koff [4] [s⁻¹]	kon [4] [M⁻¹ s⁻¹]	kon [1] [M⁻¹ s⁻¹]	Average pg/ml IFN-γ +/- Standard Deviation, human PHA-derived T cell blasts with 1 ng/ml IL-12 (no antibody: 532 +/- 51; unstimulated: 87 +/- 7) [5] [pg/ml IFN-γ]
9D12 (antibody, V domains shown, Mouse monoclonal antibody from hybridoma; also called 9D12-Vk; 9D12VH) VH: QVQLKESGPVLVAPSQSLSITCTVSGFSLNNFAISWVRQPPGKGLEWLGAIWTGGGTNYNSALKSRLSISKDNSKSQVFLKMNSLQTDDTARYYCVRKDYSYGGAMDYWGQGTSVTVSS VL: DIALTQSPASLAVSLGQRATISCRASETINFYGTSFMHWYQQKPGQSPKLLIYRASNLESGIPARFSGSGSRTDFTLTINPVEADDVATYYCQQTNEDPYTFGGGTKLEIK	< 0.001	< 1e-06	0.281 nM and 0.138 nM	0.059					
Mouse antibody 6B8 (antibody, V domains shown, Mouse monoclonal antibody from hybridoma; also called Mouse 6B8; 6B8Vk) VH: QVQLQQSDAELVKPGTSVKTSCKISGNTFTDQTIHWMKQRPEQGLEWIGYIYPRDDSPKYNENFKGKATLTADKSSSTAYMQLNSLTSEDSAVYFCAIPDRSGYAWFIYWGQGTLVTVSS VL: DIVMTQSHKFLSTSVGDRVTITCKASRDVAIAVAWYQQKPGQSPKLLLFWASTRHTGVPDRFTGSGSRTDFTLTISNVQSEDLADYFCHQYSSYPFTFGSGTKLEIK	< 0.001	< 1e-06		0.013	0.0245	1.38e-05	557000		
34G3 (antibody, V domains shown, Mouse monoclonal antibody from hybridoma; also called 34G3Vk; 34G3VH) VH: EFQLQQSGPELVKPGASVKISCKASGYSFTDYNMNWVKQSKGKSLEWIGVIIPNYGFTSYNQNFKGKATLTVDQSSSTAHMQLNSVTSEDSAVYYCVRDGGILLWYLDVWGTGTTVTVSS VL: DVVMTQTPLSLPVSLGDQASISCRSSQSLVHSNGNTYLHWYLQKPGQSPKLLIYKVSNRFSGVPDRFSGSGSGTDFTLKISRVEAEDLGVYFCSQSTHVPYTFGGGTKLEIN	0.0328	3.1e-05	0.027 nM and 0.025 nM	0.336				918000	
34D9 (antibody, V domains shown, Mouse monoclonal antibody from hybridoma; also called 34D9Vk; 34D9VH7) VH: EVQLQQSGPELVKPGASVKIPCKASGYTFTDYNMDWVKKSHGKSLEWIGDINPHNGGTIYNQKFKGKATLTVDKSSSTAHMELRSLTSEDTAVYYCARNYYGSSYGWYFDVWGTGTTVTVSS VL: DIMMTQSHKFMSTSVGDRVSITCKASQDVGNAVVWYQQKPGQSPKLLIYWASTRHIGVPDRFTGSGSGTDFTLTITNVQSEDLADYFCQQYSSYLTFGAGTKLELK	0.544	1.87e-06	0.456 nM	0.51				3440	
Chimeric 18E5 (antibody, V domains shown) VH: EVQLQQSGPELVKPGAAVKMSCKASGYTFTRYLIHWVKQKPGQGLEWIGYINPYNDGTKYNEKFKGKATLTSDKSSSTAYMELSSLTSEDSAVYYCTSNWDLDYWGQGTTLTVSS VL: DIVMTQSPATLSVTPGDRVSLSCRASQSISDYLYWYQQKSHESPRLLIKFASQSISGIPSRFTGSGSGSDFTLSIDSVEPDDVGVFFCQNGHSFPFTFGGGTKLEIK				0.031					511
antibody C1273 (disclosed in WO 2007/005955) (antibody, V domains shown) VH: DVNLVESGGGLVKPGGSLKLSCAASGFTFSSYTMSWVRQTPEKRLEWVATISSGGTYTYYPDSVKGRFTISRDNAKNTLYLQMSSLKSEDTAMFYCTRDNHAYDRGPFFDYWGQGATLTVSS VL: DIVMSQSPSSLVVSVGEKVTMSCKSSQNLFYRSNQKNHLAWYQQKPGQSPTLLIYWTSTRESGVPDRFTGSGSGTDFTLTISRVKAEDLAVYYCQQYYSYPPTFGGGTKLEIK					0.0158	5.75e-06	360000		
